Experimental findings from patent US12630600B2 (MEDIMMUNE LIMITED, priority 2022, dated 2026) are described below.

Starred links: 1 amine or outer side, 2 acyl side, 3 side chain; linkers in the order of their positions; H or OH if unused. Non-standard residues stand in square brackets, D forms with d. Groups on a side chain read outwards from the residue. No end group written: not given here. *: point of attachment. C20 diacid = O=C(O)CCCCCCCCCCCCCCCCCCC(=O)*; C18 diacid = O=C(O)CCCCCCCCCCCCCCCCC(=O)*; PEG8 = NCCOCCOCCOCCOCCOCCOCCOCCOCCC(=O)O; Dip = N[C@H](C(=O)O)C(c1ccccc1)c1ccccc1; γGlu = O=C(O)[C@H](CCC(=O)[*:2])N[*:1]; Stearoyl = CCCCCCCCCCCCCCCCCC(=O)*; αMeF = C[C@](N)(Cc1ccccc1)C(=O)O; (PEG)2 = polyethylene glycol 2; PEG4 = NCCOCCOCCOCCOCCC(=O)O; AEEA = NCCOCCOCC(=O)O; Aib = CC(C)(N)C(=O)O

The target in one experiment is human glucagon receptor (human, UniProt P47871). Nature of the experiment: cell-based or functional assay.
A further experiment deals with human GLP-1 receptor (human, UniProt P43220). Nature of the experiment: cell-based or functional assay.

Take HSQGS[αMeF]TSDVSK[Dip]LDSK([(PEG)2-(PEG)2-γGlu-γGlu-Stearoyl])AAQD[αMeF]VQ[Dip]LEA-NH2 [Peptide 55]: in the experiment with human glucagon receptor, the “cAMP production, hGluc-R EC50 (pM)” value is 19.1 pM. Also, the “cAMP production, hGLP-1R EC50 (pM)” value in the experiment with human GLP-1 receptor is 18.8 pM.

Consider H[Aib]QGTFTSDVSK[αMeF]LDSK([AEEA-AEEA-γGlu-C18 diacid])RARDFVRWLL[Aib]TE-OH (also: αMePhe at 23 (V)) [Peptide 166], for which, in the experiment with human glucagon receptor, the “cAMP production, hGluc-R EC50 (pM)” value came out at 270 pM. For the same molecule, the “cAMP production, hGLP-1R EC50 (pM)” value in the experiment with human GLP-1 receptor was found to be 48 pM.

B1: Peptide 7 (peptide)
peptide: H[Aib]HGS[αMeF]TSDVSK[αMeF]LDSK([γGlu-C18 diacid])AAQD[αMeF]VEWIANT-NH2
modifications: N-terminus assumed
SMILES: CC[C@H](C)[C@H](NC(=O)[C@H](Cc1c[nH]c2ccccc12)NC(=O)[C@H](CCC(=O)O)NC(=O)[C@@H](NC(=O)[C@](C)(Cc1ccccc1)NC(=O)[C@H](CC(=O)O)NC(=O)[C@H](CCC(N)=O)NC(=O)[C@H](C)NC(=O)[C@H](C)NC(=O)[C@H](CCCCNC(=O)CC[C@H](NC(=O)CCCCCCCCCCCCCCCCC(=O)O)C(=O)O)NC(=O)[C@H](CO)NC(=O)[C@H](CC(=O)O)NC(=O)[C@H](CC(C)C)NC(=O)[C@](C)(Cc1ccccc1)NC(=O)[C@H](CCCCN)NC(=O)[C@H](CO)NC(=O)[C@@H](NC(=O)[C@H](CC(=O)O)NC(=O)[C@H](CO)NC(=O)[C@@H](NC(=O)[C@](C)(Cc1ccccc1)NC(=O)[C@H](CO)NC(=O)CNC(=O)[C@H](Cc1c[nH]cn1)NC(=O)C(C)(C)NC(=O)[C@@H](N)Cc1c[nH]cn1)[C@@H](C)O)C(C)C)C(C)C)C(=O)N[C@@H](C)C(=O)N[C@@H](CC(N)=O)C(=O)N[C@H](C(N)=O)[C@@H](C)O
For B1, the “cAMP production, hGluc-R EC50 (pM)” value in the experiment with human glucagon receptor was found to be 30.7 pM. In addition, in the experiment with human GLP-1 receptor, the “cAMP production, hGLP-1R EC50 (pM)” value stood at 84.6 pM.

B2: Peptide 57 (peptide)
peptide: HSQGS[αMeF]TSDVSK[Dip]LDSK([PEG8-γGlu-γGlu-Stearoyl])AAQD[αMeF]VE[Aib]IINT-NH2
modifications: N-terminus assumed
SMILES: CCCCCCCCCCCCCCCCCC(=O)N[C@@H](CCC(=O)N[C@@H](CCC(=O)NCCOCCOCCOCCOCCOCCOCCOCCOCCC(=O)NCCCC[C@H](NC(=O)[C@H](CO)NC(=O)[C@H](CC(=O)O)NC(=O)[C@H](CC(C)C)NC(=O)[C@@H](NC(=O)[C@H](CCCCN)NC(=O)[C@H](CO)NC(=O)[C@@H](NC(=O)[C@H](CC(=O)O)NC(=O)[C@H](CO)NC(=O)[C@@H](NC(=O)[C@](C)(Cc1ccccc1)NC(=O)[C@H](CO)NC(=O)CNC(=O)[C@H](CCC(N)=O)NC(=O)[C@H](CO)NC(=O)[C@@H](N)Cc1c[nH]cn1)[C@@H](C)O)C(C)C)C(c1ccccc1)c1ccccc1)C(=O)N[C@@H](C)C(=O)N[C@@H](C)C(=O)N[C@@H](CCC(N)=O)C(=O)N[C@@H](CC(=O)O)C(=O)N[C@@](C)(Cc1ccccc1)C(=O)N[C@H](C(=O)N[C@@H](CCC(=O)O)C(=O)NC(C)(C)C(=O)N[C@H](C(=O)N[C@H](C(=O)N[C@@H](CC(N)=O)C(=O)N[C@H](C(N)=O)[C@@H](C)O)[C@@H](C)CC)[C@@H](C)CC)C(C)C)C(=O)O)C(=O)O
Take B2: the “cAMP production, hGluc-R EC50 (pM)” value with human glucagon receptor turned out to be 16.9 pM. Besides, the “cAMP production, hGLP-1R EC50 (pM)” value in the experiment with human GLP-1 receptor was found to be 9.09 pM.

B3: Peptide 153 (peptide)
peptide: H[Aib]QGTFTSDVSK[αMeF]LDSK([AEEA-AEEA-γGlu-C20 diacid])RAQDFVRWLL[Aib]E-OH
modifications: N-terminus assumed
SMILES: CC(C)C[C@H](NC(=O)[C@H](Cc1c[nH]c2ccccc12)NC(=O)[C@H](CCCNC(=N)N)NC(=O)[C@@H](NC(=O)[C@H](Cc1ccccc1)NC(=O)[C@H](CC(=O)O)NC(=O)[C@H](CCC(N)=O)NC(=O)[C@H](C)NC(=O)[C@H](CCCNC(=N)N)NC(=O)[C@H](CCCCNC(=O)COCCOCCNC(=O)COCCOCCNC(=O)CC[C@H](NC(=O)CCCCCCCCCCCCCCCCCCC(=O)O)C(=O)O)NC(=O)[C@H](CO)NC(=O)[C@H](CC(=O)O)NC(=O)[C@H](CC(C)C)NC(=O)[C@](C)(Cc1ccccc1)NC(=O)[C@H](CCCCN)NC(=O)[C@H](CO)NC(=O)[C@@H](NC(=O)[C@H](CC(=O)O)NC(=O)[C@H](CO)NC(=O)[C@@H](NC(=O)[C@H](Cc1ccccc1)NC(=O)[C@@H](NC(=O)CNC(=O)[C@H](CCC(N)=O)NC(=O)C(C)(C)NC(=O)[C@@H](N)Cc1c[nH]cn1)[C@@H](C)O)[C@@H](C)O)C(C)C)C(C)C)C(=O)N[C@@H](CC(C)C)C(=O)NC(C)(C)C(=O)N[C@@H](CCC(=O)O)C(=O)O
As to B3, the “cAMP production, hGluc-R EC50 (pM)” value with human glucagon receptor was found to be 99 pM. For the same molecule, in the experiment with human GLP-1 receptor, the “cAMP production, hGLP-1R EC50 (pM)” value was 41.2 pM.

B4: Peptide 152 (peptide)
peptide: H[Aib]QGTFTSDVSK[αMeF]LDSK([AEEA-AEEA-γGlu-C18 diacid])RAQDFVRWLL[Aib]E-OH
modifications: N-terminus assumed
SMILES: CC(C)C[C@H](NC(=O)[C@H](Cc1c[nH]c2ccccc12)NC(=O)[C@H](CCCNC(=N)N)NC(=O)[C@@H](NC(=O)[C@H](Cc1ccccc1)NC(=O)[C@H](CC(=O)O)NC(=O)[C@H](CCC(N)=O)NC(=O)[C@H](C)NC(=O)[C@H](CCCNC(=N)N)NC(=O)[C@H](CCCCNC(=O)COCCOCCNC(=O)COCCOCCNC(=O)CC[C@H](NC(=O)CCCCCCCCCCCCCCCCC(=O)O)C(=O)O)NC(=O)[C@H](CO)NC(=O)[C@H](CC(=O)O)NC(=O)[C@H](CC(C)C)NC(=O)[C@](C)(Cc1ccccc1)NC(=O)[C@H](CCCCN)NC(=O)[C@H](CO)NC(=O)[C@@H](NC(=O)[C@H](CC(=O)O)NC(=O)[C@H](CO)NC(=O)[C@@H](NC(=O)[C@H](Cc1ccccc1)NC(=O)[C@@H](NC(=O)CNC(=O)[C@H](CCC(N)=O)NC(=O)C(C)(C)NC(=O)[C@@H](N)Cc1c[nH]cn1)[C@@H](C)O)[C@@H](C)O)C(C)C)C(C)C)C(=O)N[C@@H](CC(C)C)C(=O)NC(C)(C)C(=O)N[C@@H](CCC(=O)O)C(=O)O
Turning to B4, the “cAMP production, hGluc-R EC50 (pM)” value in the experiment with human glucagon receptor stood at 20.4 pM. Also, in the experiment with human GLP-1 receptor, the “cAMP production, hGLP-1R EC50 (pM)” value worked out at 11.9 pM.

B5: Peptide 6 (peptide)
peptide: H[Aib]HGS[αMeF]TSDVSK[αMeF]LDSK([AEEA-AEEA-γGlu-C18 diacid])AAQD[αMeF]VEWIAN-NH2
modifications: N-terminus assumed
SMILES: CC[C@H](C)[C@H](NC(=O)[C@H](Cc1c[nH]c2ccccc12)NC(=O)[C@H](CCC(=O)O)NC(=O)[C@@H](NC(=O)[C@](C)(Cc1ccccc1)NC(=O)[C@H](CC(=O)O)NC(=O)[C@H](CCC(N)=O)NC(=O)[C@H](C)NC(=O)[C@H](C)NC(=O)[C@H](CCCCNC(=O)COCCOCCNC(=O)COCCOCCNC(=O)CC[C@H](NC(=O)CCCCCCCCCCCCCCCCC(=O)O)C(=O)O)NC(=O)[C@H](CO)NC(=O)[C@H](CC(=O)O)NC(=O)[C@H](CC(C)C)NC(=O)[C@](C)(Cc1ccccc1)NC(=O)[C@H](CCCCN)NC(=O)[C@H](CO)NC(=O)[C@@H](NC(=O)[C@H](CC(=O)O)NC(=O)[C@H](CO)NC(=O)[C@@H](NC(=O)[C@](C)(Cc1ccccc1)NC(=O)[C@H](CO)NC(=O)CNC(=O)[C@H](Cc1c[nH]cn1)NC(=O)C(C)(C)NC(=O)[C@@H](N)Cc1c[nH]cn1)[C@@H](C)O)C(C)C)C(C)C)C(=O)N[C@@H](C)C(=O)N[C@@H](CC(N)=O)C(N)=O
On to B5, for which the “cAMP production, hGluc-R EC50 (pM)” value with human glucagon receptor was found to be 516 pM. The “cAMP production, hGLP-1R EC50 (pM)” value with human GLP-1 receptor was determined as 568 pM.

B6: Peptide 56 (peptide)
peptide: HSQGS[αMeF]TSDVSK[Dip]LDSK([PEG4-γGlu-γGlu-Stearoyl])AAQD[αMeF]VE[Aib]IINT-NH2
modifications: N-terminus assumed
SMILES: CCCCCCCCCCCCCCCCCC(=O)N[C@@H](CCC(=O)N[C@@H](CCC(=O)NCCOCCOCCOCCOCCC(=O)NCCCC[C@H](NC(=O)[C@H](CO)NC(=O)[C@H](CC(=O)O)NC(=O)[C@H](CC(C)C)NC(=O)[C@@H](NC(=O)[C@H](CCCCN)NC(=O)[C@H](CO)NC(=O)[C@@H](NC(=O)[C@H](CC(=O)O)NC(=O)[C@H](CO)NC(=O)[C@@H](NC(=O)[C@](C)(Cc1ccccc1)NC(=O)[C@H](CO)NC(=O)CNC(=O)[C@H](CCC(N)=O)NC(=O)[C@H](CO)NC(=O)[C@@H](N)Cc1c[nH]cn1)[C@@H](C)O)C(C)C)C(c1ccccc1)c1ccccc1)C(=O)N[C@@H](C)C(=O)N[C@@H](C)C(=O)N[C@@H](CCC(N)=O)C(=O)N[C@@H](CC(=O)O)C(=O)N[C@@](C)(Cc1ccccc1)C(=O)N[C@H](C(=O)N[C@@H](CCC(=O)O)C(=O)NC(C)(C)C(=O)N[C@H](C(=O)N[C@H](C(=O)N[C@@H](CC(N)=O)C(=O)N[C@H](C(N)=O)[C@@H](C)O)[C@@H](C)CC)[C@@H](C)CC)C(C)C)C(=O)O)C(=O)O
For B6, in the experiment with human glucagon receptor, the “cAMP production, hGluc-R EC50 (pM)” value amounted to 10.9 pM. In addition, the “cAMP production, hGLP-1R EC50 (pM)” value in the experiment with human GLP-1 receptor is 4.86 pM.

B7: Peptide 5 (peptide)
peptide: H[Aib]QGS[αMeF]TSDVSK[αMeF]LDSK([AEEA-AEEA-γGlu-γGlu-C18 diacid])AAQD[αMeF]VQ[Aib]IAN-NH2
modifications: N-terminus assumed
SMILES: CC[C@H](C)[C@H](NC(=O)C(C)(C)NC(=O)[C@H](CCC(N)=O)NC(=O)[C@@H](NC(=O)[C@](C)(Cc1ccccc1)NC(=O)[C@H](CC(=O)O)NC(=O)[C@H](CCC(N)=O)NC(=O)[C@H](C)NC(=O)[C@H](C)NC(=O)[C@H](CCCCNC(=O)COCCOCCNC(=O)COCCOCCNC(=O)CC[C@H](NC(=O)CC[C@H](NC(=O)CCCCCCCCCCCCCCCCC(=O)O)C(=O)O)C(=O)O)NC(=O)[C@H](CO)NC(=O)[C@H](CC(=O)O)NC(=O)[C@H](CC(C)C)NC(=O)[C@](C)(Cc1ccccc1)NC(=O)[C@H](CCCCN)NC(=O)[C@H](CO)NC(=O)[C@@H](NC(=O)[C@H](CC(=O)O)NC(=O)[C@H](CO)NC(=O)[C@@H](NC(=O)[C@](C)(Cc1ccccc1)NC(=O)[C@H](CO)NC(=O)CNC(=O)[C@H](CCC(N)=O)NC(=O)C(C)(C)NC(=O)[C@@H](N)Cc1c[nH]cn1)[C@@H](C)O)C(C)C)C(C)C)C(=O)N[C@@H](C)C(=O)N[C@@H](CC(N)=O)C(N)=O
For B7, the “cAMP production, hGluc-R EC50 (pM)” value with human glucagon receptor is 7140 pM. Moreover, in the experiment with human GLP-1 receptor, the “cAMP production, hGLP-1R EC50 (pM)” value stood at 283 pM.
